According to US20140212425A1:

Columns and labels:
[1] = target: CD20 on cells (Daudi cells, B cells in PBMCs) (human) (UniProt P11836); experiment: cell-based or functional assay
[2] = target: Soluble single-chain FcRn (extracellular domain of the human FcRn heavy chain fused with β2-microglobulin via a flexible peptide linker) (human) (UniProt P55899); experiment: SPR, scFcRn immobilised, pH 6.0
[3] = target: Soluble single-chain FcRn (extracellular domain of the human FcRn heavy chain fused with β2-microglobulin via a flexible peptide linker) (human) (UniProt P55899); experiment: SPR (BIACORE X), scFcRn on CM5 chip, pH 6.0, two-state reaction model; mean of 3 runs, S.D. 21.5
[4] = target: Soluble single-chain FcRn (extracellular domain of the human FcRn heavy chain fused with β2-microglobulin via a flexible peptide linker) (human) (UniProt P55899); experiment: SPR (BIACORE X), scFcRn on CM5 chip, pH 6.0, two-state reaction model; mean of 3 runs, S.D. 0.0024
[5] = target: Soluble single-chain FcRn (extracellular domain of the human FcRn heavy chain fused with β2-microglobulin via a flexible peptide linker) (human) (UniProt P55899); experiment: SPR (BIACORE X), scFcRn on CM5 chip, pH 6.0, two-state reaction model; mean of 3 runs, S.D. 2.72 × 10^4
[6] = target: Soluble single-chain FcRn (extracellular domain of the human FcRn heavy chain fused with β2-microglobulin via a flexible peptide linker) (human) (UniProt P55899); experiment: SPR (BIACORE X), scFcRn amine-coupled to CM5 chip, antibody 25-400 nM as analyte, pH 6.0, two-state reaction model; Run 1
[7] = target: Soluble single-chain FcRn (extracellular domain of the human FcRn heavy chain fused with β2-microglobulin via a flexible peptide linker) (human) (UniProt P55899); experiment: SPR (BIACORE X), scFcRn amine-coupled to CM5 chip, antibody 25-400 nM as analyte, pH 6.0, two-state reaction model; Run 2
[8] = target: Soluble single-chain FcRn (extracellular domain of the human FcRn heavy chain fused with β2-microglobulin via a flexible peptide linker) (human) (UniProt P55899); experiment: SPR (BIACORE X), scFcRn amine-coupled to CM5 chip, antibody 25-400 nM as analyte, pH 6.0, two-state reaction model; Run 3
[9] = target: Soluble single-chain FcRn (extracellular domain of the human FcRn heavy chain fused with β2-microglobulin via a flexible peptide linker) (human) (UniProt P55899); experiment: SPR (BIACORE X), scFcRn on CM5 chip, pH 6.0, two-state reaction model; mean of 3 runs, S.D. 1.5
[10] = target: CD22 on cells (B cells in PBMCs, Daudi, D1-1 cells) (human) (UniProt P20273); experiment: cell-based or functional assay

Chain of Soluble single-chain FcRn (extracellular domain of the human FcRn heavy chain fused with β2-microglobulin via a flexible peptide linker) (human) (P55899 24-297 limits assumed, chain 1 of 2): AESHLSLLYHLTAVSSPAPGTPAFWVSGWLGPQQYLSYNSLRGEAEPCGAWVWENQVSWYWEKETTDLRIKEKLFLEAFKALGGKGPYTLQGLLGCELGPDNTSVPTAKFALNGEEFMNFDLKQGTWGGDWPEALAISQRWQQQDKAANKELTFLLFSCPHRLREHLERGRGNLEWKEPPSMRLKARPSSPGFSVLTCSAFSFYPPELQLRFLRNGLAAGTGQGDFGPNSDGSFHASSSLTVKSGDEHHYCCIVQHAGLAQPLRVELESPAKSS
Chain of Soluble single-chain FcRn (extracellular domain of the human FcRn heavy chain fused with β2-microglobulin via a flexible peptide linker) (human) (P61769 21-119 limits assumed, chain 2 of 2, further chain): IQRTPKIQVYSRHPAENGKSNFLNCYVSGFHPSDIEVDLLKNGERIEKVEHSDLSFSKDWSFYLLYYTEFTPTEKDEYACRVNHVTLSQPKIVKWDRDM
Chain of CD20 on cells (Daudi cells, B cells in PBMCs) (human) (P11836 whole entry, the tested form may be a part): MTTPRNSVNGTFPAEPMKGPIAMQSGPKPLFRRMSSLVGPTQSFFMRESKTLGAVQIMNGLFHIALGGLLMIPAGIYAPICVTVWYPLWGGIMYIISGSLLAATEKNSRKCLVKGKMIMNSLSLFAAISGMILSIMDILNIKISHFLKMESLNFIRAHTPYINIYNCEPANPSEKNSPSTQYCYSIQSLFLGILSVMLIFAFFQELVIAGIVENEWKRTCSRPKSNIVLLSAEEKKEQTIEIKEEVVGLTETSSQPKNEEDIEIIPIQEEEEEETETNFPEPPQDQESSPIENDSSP

“20*-2b (Ck-AD2-IgG-veltuzumab conjugated with IFNα2b-DDD2) (from UniProt P01563 24-188)” gave a cytotoxicity in Daudi cells, EC50 (MTS assay, 3 days) [1] of 200 nM.

For “20-2b (CH3-AD2-IgG-veltuzumab conjugated with IFNα2b-DDD2) (from UniProt P01563 24-188)”, the cytotoxicity in Daudi cells, EC50 (MTS assay, 3 days) [1] was 200 nM.

Molecule “22*-(20)-(20), anti-CD22/CD20 bispecific hexavalent antibody (Ck-AD2-IgG-epratuzumab conjugated with CH1-DDD2-Fab-veltuzumab) (bispecific antibody)” has a Kd [2] of 155 nM, a fold stronger binding affinity than 22-(20)-(20) [2] of 2 fold and a Kd [3] of 166 nM. It also gave a koff [4] of 0.0413 s⁻¹, a kon [5] of 251000 M⁻¹ s⁻¹ and a Kd [6] of 141 nM. The koff [6] was 0.0395 s⁻¹, the kon [6] was 280000 M⁻¹ s⁻¹ and the Kd [7] was 179 nM. It also gave a koff [7] of 0.0404 s⁻¹, a kon [7] of 226000 M⁻¹ s⁻¹ and a Kd [8] of 178 nM. It also gave a koff [8] of 0.0441 s⁻¹ and a kon [8] of 248000 M⁻¹ s⁻¹.

“22-(20)-(20), Fc-based anti-CD22/CD20 bispecific hexavalent antibody (CH3-AD2-IgG-epratuzumab conjugated with CH1-DDD2-Fab-veltuzumab) (bispecific antibody)” gave a Kd [7] of 267 nM and a Kd [8] of 352 nM.

“Epratuzumab (humanized anti-CD22 IgG1κ) (antibody)” gave a Kd [9] of 16.3 nM, a Kd [6] of 15 nM and a Kd [7] of 17.9 nM. The Kd [8] was 15.8 nM.

B1: F(ab′)2 fragment of epratuzumab (protein, INN chains, looked up)
VH: QVQLVQSGAEVKKPGSSVKVSCKASGYTFTSYWLHWVRQAPGQGLEWIGYINPRNDYTEYNQNFKDKATITADESTNTAYMELSSLRSEDTAFYFCARRDITTFYWGQGTTVTVSS
VL: DIQLTQSPSSLSASVGDRVTMSCKSSQSVLYSANHKNYLAWYQQKPGKAPKLLIYWASTRESGVPSRFSGSGSGTDFTFTISSLQPEDIATYYCHQYLSSWTFGGGTKLEIK
modifications: F(ab')2
B1 was tested, and the CD22 level on the surface of B cells in PBMCs (% of isotype control MFI), 10 µg/mL [10] was 45 % control.
